Data as given in article PMC10720265.

Tests used:
Assay in all cases: MYC IP followed by mass spectrometry (IP-MS)
Conditions in all cases: three biological replicates; HeLa cell lysates; signals normalized to bait protein levels; read off a plot
[1] = target: ARS2, endogenous in HeLa cells
[2] = target: NCBP1, CBC component, endogenous in HeLa cells (UniProt Q09161)
[3] = target: NCBP2, CBC component, endogenous in HeLa cells (UniProt P52298)
Chain of UniProt P52298 (P52298 whole entry): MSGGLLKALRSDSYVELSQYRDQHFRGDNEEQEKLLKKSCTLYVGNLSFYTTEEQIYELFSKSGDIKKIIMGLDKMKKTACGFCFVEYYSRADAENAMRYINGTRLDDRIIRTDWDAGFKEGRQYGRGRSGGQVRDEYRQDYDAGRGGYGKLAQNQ

Chain of UniProt Q09161 (Q09161 whole entry): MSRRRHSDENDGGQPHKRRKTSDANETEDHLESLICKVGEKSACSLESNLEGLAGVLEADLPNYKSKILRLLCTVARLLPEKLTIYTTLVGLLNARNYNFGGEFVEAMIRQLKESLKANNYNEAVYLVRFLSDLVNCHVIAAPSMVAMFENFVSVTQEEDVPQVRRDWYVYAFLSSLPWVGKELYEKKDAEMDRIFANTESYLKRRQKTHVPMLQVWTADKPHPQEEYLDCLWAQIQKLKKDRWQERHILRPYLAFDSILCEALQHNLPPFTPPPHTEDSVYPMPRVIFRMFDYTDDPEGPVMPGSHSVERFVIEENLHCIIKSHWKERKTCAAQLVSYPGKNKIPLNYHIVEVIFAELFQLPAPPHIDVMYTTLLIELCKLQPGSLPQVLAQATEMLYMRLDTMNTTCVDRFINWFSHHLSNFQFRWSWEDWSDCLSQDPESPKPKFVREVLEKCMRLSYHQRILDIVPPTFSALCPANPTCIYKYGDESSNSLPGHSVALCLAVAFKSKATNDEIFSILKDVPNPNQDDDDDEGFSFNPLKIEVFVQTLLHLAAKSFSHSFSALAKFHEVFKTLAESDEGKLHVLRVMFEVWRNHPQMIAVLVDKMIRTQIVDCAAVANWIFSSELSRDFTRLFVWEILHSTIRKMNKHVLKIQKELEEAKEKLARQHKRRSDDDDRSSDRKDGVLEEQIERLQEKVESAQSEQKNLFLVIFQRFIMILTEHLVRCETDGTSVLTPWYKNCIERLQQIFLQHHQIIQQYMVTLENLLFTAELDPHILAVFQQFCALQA

other: log2 fold change (Z1 1-209(WT)/Z1 1-209(MUT)) [1]: 6.9 log2
other: log2 fold change (Z1 1-209(WT)/Z1 1-209(MUT)) [2]: 2.1 log2
other: log2 fold change (Z1 1-209(WT)/Z1 1-209(MUT)) [3]: 1.8 log2
Substance: Z1^1-209(WT), MYC-tagged N-terminal fragment of human ZFC3H1 (from UniProt O60293) … -> … (E->A; E->A; D->A; E->A; residue numbers not printed)
